Experiment [1] concerns the target T1, human calcitonin receptor (human, UniProt P30988 25-474).
T1 construct: whole, on cells; also called hCTR; hCT
T1 sequence (looked up): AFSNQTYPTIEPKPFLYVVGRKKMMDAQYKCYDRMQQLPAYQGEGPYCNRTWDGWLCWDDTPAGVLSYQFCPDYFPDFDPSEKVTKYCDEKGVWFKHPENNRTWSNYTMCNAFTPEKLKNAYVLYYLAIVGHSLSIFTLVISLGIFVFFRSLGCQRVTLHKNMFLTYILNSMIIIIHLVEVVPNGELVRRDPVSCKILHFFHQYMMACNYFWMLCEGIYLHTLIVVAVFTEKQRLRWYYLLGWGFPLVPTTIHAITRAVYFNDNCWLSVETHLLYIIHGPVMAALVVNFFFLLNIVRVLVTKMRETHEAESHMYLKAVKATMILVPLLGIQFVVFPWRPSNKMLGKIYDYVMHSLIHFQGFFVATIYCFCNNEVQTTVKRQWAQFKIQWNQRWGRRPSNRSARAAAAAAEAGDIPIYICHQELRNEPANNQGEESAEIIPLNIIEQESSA
In words: SPA competition binding, membranes with human calcitonin receptor, displacement of 125I-calcitonin (Assay VII). The procedure, abridged:
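BHK hCTR membranes 35 ng/μL + SPA beads 0.05 mg/well; buffer 50 mM Hepes pH 7.4, 1 mM CaCl2, 5 mM MgCl₂, 0.1% OA, 0.02% Tween20. 120 min, 25° C., shaking. Scintillation count; IC50 by one-site binding competition.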
Background: Displacement assays read how much labelled ligand stays bound in the presence of the test substance.

Experiment [2] deals with T1, human calcitonin receptor. As to the kind of experiment: ratio of IC50 at hCTR to IC50 at the human amylin receptor (reference). A digest of the protocol: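 Scintillation proximity competition binding on cell membranes at 35 ng/μL with SPA beads, in 50 mM Hepes pH 7.4, 1 mM CaCl2, 5 mM MgCl₂, 0.1% OA, 0.02% Tween20. Incubated 120 min at 25° C with shaking. IC₅₀ from one-site competition fit.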

Numbered stars: 1 amine (or outer) side, 2 acyl side, 3 side chain; on linkers, the order of the positions; unused ones are H or OH. Bridge positions count the residues as written; N and C are the ends. * marks the point of attachment. C20 diacid = O=C(O)CCCCCCCCCCCCCCCCCCC(=O)*; γGlu = O=C(O)[C@H](CCC(=O)[*:2])N[*:1]

The values below come from patent publication US20140087995A1 (published 2014).

B1: N^α1-[(4S)-4-carboxy-4-(19-carboxynonadecanoylamino)butanoyl]-[Glu14,Arg17,Pro21,Pro26]-h-amylin (peptide)
peptide: {C20 diacid-γGlu}-KCNTATCATQRLAEFLRHSSPNFGAPLSSTNVGSNTY-NH2
modifications: disulfide 2-7
SMILES: CC(C)C[C@H](NC(=O)[C@H](CCCNC(=N)N)NC(=O)[C@H](CCC(N)=O)NC(=O)[C@@H](NC(=O)[C@H](C)NC(=O)[C@@H]1CSSC[C@H](NC(=O)[C@H](CCCCN)NC(=O)CC[C@H](NC(=O)CCCCCCCCCCCCCCCCCCC(=O)O)C(=O)O)C(=O)N[C@@H](CC(N)=O)C(=O)N[C@@H]([C@@H](C)O)C(=O)N[C@@H](C)C(=O)N[C@@H]([C@@H](C)O)C(=O)N1)[C@@H](C)O)C(=O)N[C@@H](C)C(=O)N[C@@H](CCC(=O)O)C(=O)N[C@@H](Cc1ccccc1)C(=O)N[C@@H](CC(C)C)C(=O)N[C@@H](CCCNC(=N)N)C(=O)N[C@@H](Cc1c[nH]cn1)C(=O)N[C@@H](CO)C(=O)N[C@@H](CO)C(=O)N1CCC[C@H]1C(=O)N[C@@H](CC(N)=O)C(=O)N[C@@H](Cc1ccccc1)C(=O)NCC(=O)N[C@@H](C)C(=O)N1CCC[C@H]1C(=O)N[C@@H](CC(C)C)C(=O)N[C@@H](CO)C(=O)N[C@@H](CO)C(=O)N[C@H](C(=O)N[C@@H](CC(N)=O)C(=O)N[C@H](C(=O)NCC(=O)N[C@@H](CO)C(=O)N[C@@H](CC(N)=O)C(=O)N[C@H](C(=O)N[C@@H](Cc1ccc(O)cc1)C(N)=O)[C@@H](C)O)C(C)C)[C@@H](C)O
notes: also called compound 7
By IC50 is commonly meant the concentration needed to halve the response being measured. As for B1, the half-maximal inhibitory concentration (IC50) in experiment [1] stood at 11.1 nM. Besides, in experiment [2], the “Ratio hCT/hAmylin binding” value turned out to be 16.5.

B2: N^α1-[(4S)-4-carboxy-4-(19-carboxynonadecanoylamino)butanoyl]-[Glu14,Arg17,Pro21,Pro27,His35]-h-amylin (peptide)
peptide: {C20 diacid-γGlu}-KCNTATCATQRLAEFLRHSSPNFGAIPSSTNVGSHTY-NH2
modifications: disulfide 2-7
SMILES: CC[C@H](C)[C@H](NC(=O)[C@H](C)NC(=O)CNC(=O)[C@H](Cc1ccccc1)NC(=O)[C@H](CC(N)=O)NC(=O)[C@@H]1CCCN1C(=O)[C@H](CO)NC(=O)[C@H](CO)NC(=O)[C@H](Cc1c[nH]cn1)NC(=O)[C@H](CCCNC(=N)N)NC(=O)[C@H](CC(C)C)NC(=O)[C@H](Cc1ccccc1)NC(=O)[C@H](CCC(=O)O)NC(=O)[C@H](C)NC(=O)[C@H](CC(C)C)NC(=O)[C@H](CCCNC(=N)N)NC(=O)[C@H](CCC(N)=O)NC(=O)[C@@H](NC(=O)[C@H](C)NC(=O)[C@@H]1CSSC[C@H](NC(=O)[C@H](CCCCN)NC(=O)CC[C@H](NC(=O)CCCCCCCCCCCCCCCCCCC(=O)O)C(=O)O)C(=O)N[C@@H](CC(N)=O)C(=O)N[C@@H]([C@@H](C)O)C(=O)N[C@@H](C)C(=O)N[C@@H]([C@@H](C)O)C(=O)N1)[C@@H](C)O)C(=O)N1CCC[C@H]1C(=O)N[C@@H](CO)C(=O)N[C@@H](CO)C(=O)N[C@H](C(=O)N[C@@H](CC(N)=O)C(=O)N[C@H](C(=O)NCC(=O)N[C@@H](CO)C(=O)N[C@@H](Cc1c[nH]cn1)C(=O)N[C@H](C(=O)N[C@@H](Cc1ccc(O)cc1)C(N)=O)[C@@H](C)O)C(C)C)[C@@H](C)O
notes: also called compound 18
Take B2: in experiment [1], the half-inhibitory concentration (IC50) is 5.09 nM. Besides, the “Ratio hCT/hAmylin binding” value in experiment [2] worked out at 9.2.

B3: N^α1-[(4S)-4-carboxy-4-(19-carboxynonadecanoylamino)butanoyl]-[Glu14,Arg17,Pro21,Pro27,Pro29]-h-amylin (peptide)
peptide: {C20 diacid-γGlu}-KCNTATCATQRLAEFLRHSSPNFGAIPSPTNVGSNTY-NH2
modifications: disulfide 2-7
SMILES: CC[C@H](C)[C@H](NC(=O)[C@H](C)NC(=O)CNC(=O)[C@H](Cc1ccccc1)NC(=O)[C@H](CC(N)=O)NC(=O)[C@@H]1CCCN1C(=O)[C@H](CO)NC(=O)[C@H](CO)NC(=O)[C@H](Cc1c[nH]cn1)NC(=O)[C@H](CCCNC(=N)N)NC(=O)[C@H](CC(C)C)NC(=O)[C@H](Cc1ccccc1)NC(=O)[C@H](CCC(=O)O)NC(=O)[C@H](C)NC(=O)[C@H](CC(C)C)NC(=O)[C@H](CCCNC(=N)N)NC(=O)[C@H](CCC(N)=O)NC(=O)[C@@H](NC(=O)[C@H](C)NC(=O)[C@@H]1CSSC[C@H](NC(=O)[C@H](CCCCN)NC(=O)CC[C@H](NC(=O)CCCCCCCCCCCCCCCCCCC(=O)O)C(=O)O)C(=O)N[C@@H](CC(N)=O)C(=O)N[C@@H]([C@@H](C)O)C(=O)N[C@@H](C)C(=O)N[C@@H]([C@@H](C)O)C(=O)N1)[C@@H](C)O)C(=O)N1CCC[C@H]1C(=O)N[C@@H](CO)C(=O)N1CCC[C@H]1C(=O)N[C@H](C(=O)N[C@@H](CC(N)=O)C(=O)N[C@H](C(=O)NCC(=O)N[C@@H](CO)C(=O)N[C@@H](CC(N)=O)C(=O)N[C@H](C(=O)N[C@@H](Cc1ccc(O)cc1)C(N)=O)[C@@H](C)O)C(C)C)[C@@H](C)O
notes: also called compound 37
Consider B3, for which the IC50 in experiment [1] worked out at 2.18 nM. The “Ratio hCT/hAmylin binding” value in experiment [2] was 2.3.

B4: N^α1-[(4S)-4-carboxy-4-(19-carboxynonadecanoylamino)butanoyl]-[Glu14,Arg17,Pro21,Pro27,Asp35,Pro37]-h-amylin (peptide)
peptide: {C20 diacid-γGlu}-KCNTATCATQRLAEFLRHSSPNFGAIPSSTNVGSDTP-NH2
modifications: disulfide 2-7
SMILES: CC[C@H](C)[C@H](NC(=O)[C@H](C)NC(=O)CNC(=O)[C@H](Cc1ccccc1)NC(=O)[C@H](CC(N)=O)NC(=O)[C@@H]1CCCN1C(=O)[C@H](CO)NC(=O)[C@H](CO)NC(=O)[C@H](Cc1c[nH]cn1)NC(=O)[C@H](CCCNC(=N)N)NC(=O)[C@H](CC(C)C)NC(=O)[C@H](Cc1ccccc1)NC(=O)[C@H](CCC(=O)O)NC(=O)[C@H](C)NC(=O)[C@H](CC(C)C)NC(=O)[C@H](CCCNC(=N)N)NC(=O)[C@H](CCC(N)=O)NC(=O)[C@@H](NC(=O)[C@H](C)NC(=O)[C@@H]1CSSC[C@H](NC(=O)[C@H](CCCCN)NC(=O)CC[C@H](NC(=O)CCCCCCCCCCCCCCCCCCC(=O)O)C(=O)O)C(=O)N[C@@H](CC(N)=O)C(=O)N[C@@H]([C@@H](C)O)C(=O)N[C@@H](C)C(=O)N[C@@H]([C@@H](C)O)C(=O)N1)[C@@H](C)O)C(=O)N1CCC[C@H]1C(=O)N[C@@H](CO)C(=O)N[C@@H](CO)C(=O)N[C@H](C(=O)N[C@@H](CC(N)=O)C(=O)N[C@H](C(=O)NCC(=O)N[C@@H](CO)C(=O)N[C@@H](CC(=O)O)C(=O)N[C@H](C(=O)N1CCC[C@H]1C(N)=O)[C@@H](C)O)C(C)C)[C@@H](C)O
notes: also called compound 11
Take B4: in experiment [1], the 50% inhibitory concentration (IC50) is 0.101 nM. Also, the “Ratio hCT/hAmylin binding” value in experiment [2] worked out at 1.

B5: N^α1-[(4S)-4-carboxy-4-(19-carboxynonadecanoylamino)butanoyl]-[Glu14,Arg17,Pro21,Pro27,Arg35]-h-amylin (peptide)
peptide: {C20 diacid-γGlu}-KCNTATCATQRLAEFLRHSSPNFGAIPSSTNVGSRTY-NH2
modifications: disulfide 2-7
SMILES: CC[C@H](C)[C@H](NC(=O)[C@H](C)NC(=O)CNC(=O)[C@H](Cc1ccccc1)NC(=O)[C@H](CC(N)=O)NC(=O)[C@@H]1CCCN1C(=O)[C@H](CO)NC(=O)[C@H](CO)NC(=O)[C@H](Cc1c[nH]cn1)NC(=O)[C@H](CCCNC(=N)N)NC(=O)[C@H](CC(C)C)NC(=O)[C@H](Cc1ccccc1)NC(=O)[C@H](CCC(=O)O)NC(=O)[C@H](C)NC(=O)[C@H](CC(C)C)NC(=O)[C@H](CCCNC(=N)N)NC(=O)[C@H](CCC(N)=O)NC(=O)[C@@H](NC(=O)[C@H](C)NC(=O)[C@@H]1CSSC[C@H](NC(=O)[C@H](CCCCN)NC(=O)CC[C@H](NC(=O)CCCCCCCCCCCCCCCCCCC(=O)O)C(=O)O)C(=O)N[C@@H](CC(N)=O)C(=O)N[C@@H]([C@@H](C)O)C(=O)N[C@@H](C)C(=O)N[C@@H]([C@@H](C)O)C(=O)N1)[C@@H](C)O)C(=O)N1CCC[C@H]1C(=O)N[C@@H](CO)C(=O)N[C@@H](CO)C(=O)N[C@H](C(=O)N[C@@H](CC(N)=O)C(=O)N[C@H](C(=O)NCC(=O)N[C@@H](CO)C(=O)N[C@@H](CCCNC(=N)N)C(=O)N[C@H](C(=O)N[C@@H](Cc1ccc(O)cc1)C(N)=O)[C@@H](C)O)C(C)C)[C@@H](C)O
notes: also called compound 16
In the case of B5, the IC50 in experiment [1] is 17.1 nM. For the same molecule, the “Ratio hCT/hAmylin binding” value in experiment [2] was 19.1.
